The values that follow come from paper PMC10206189 (2023).

The target in the test is T1, mouse Plexin-B1 (20–535)-6xHis (mouse, UniProt Q8CJH3 20-535).
T1 chain: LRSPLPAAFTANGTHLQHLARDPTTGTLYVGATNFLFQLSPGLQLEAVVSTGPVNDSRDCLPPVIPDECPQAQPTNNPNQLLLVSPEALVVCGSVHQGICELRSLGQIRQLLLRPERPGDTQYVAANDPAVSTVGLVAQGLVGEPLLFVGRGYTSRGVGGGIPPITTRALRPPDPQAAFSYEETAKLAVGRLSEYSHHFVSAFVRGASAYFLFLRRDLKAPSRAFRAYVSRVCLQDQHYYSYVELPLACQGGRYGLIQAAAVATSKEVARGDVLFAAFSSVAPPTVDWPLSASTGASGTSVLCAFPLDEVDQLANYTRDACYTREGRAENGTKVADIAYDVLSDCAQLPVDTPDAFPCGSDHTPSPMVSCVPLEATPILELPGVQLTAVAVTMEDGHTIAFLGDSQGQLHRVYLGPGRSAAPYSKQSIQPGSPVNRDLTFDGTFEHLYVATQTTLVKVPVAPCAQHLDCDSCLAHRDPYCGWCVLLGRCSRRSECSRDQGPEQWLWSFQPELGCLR
The experiment in a line: BLI.

B1: VHH14-Fc (Fc fusion)
chain: QVQLQESGGGLVQAGGSLRLSCAASGFTLGYYAIGWFRQAPGKEREEVSCINASGGSTFYEDSVKGRFTISRDNAKNTVFLQMNRLKPEDTAVYYCAAACEVVAVGYWGQGTQVTVSA
Consider B1, for which the dissociation rate constant (koff) was found to be 1.66e-05 s⁻¹.

B2: VHH15-Fc (Fc fusion)
chain: QVQLQESGGGLVQPGGSLRLSCAASGFRLDYYAIGWFRQAPGKEREGVLCISSSGGSINYADSVKGRFTISRDNAKNTVYLQMNSLKPEDTAVYYCGASSYNTQRAECYGMDYWGKGTQVTVSA
B2: the koff amounted to 0.002 s⁻¹.

A word on the koff: it is the first-order rate constant of dissociation. A higher koff goes with a short-lived complex.
